These results are taken from patent US20230080534A1, “SEMG2 ANTIBODY AND USE THEREOF” (SHANGHAI BIOTROY BIOTECHNIQUE CO., LTD., priority 2020, published 2023).

“Also recorded” adds a separate entry of the source.

One assay addresses T1, SEMG2(497-509) fragment (Homo sapiens, UniProt Q02383).
T1 construct: SEMG2(497-509) fragment and SEMG2(563-574) fragment were immobilized on the ELISA plate; made in house; host or cells: chemical synthesis
Nature of the assay: ELISA binding of antibodies to SEMG2(497-509) epitope. As to the method:
Specifically, SEMG2 full-length protein (1-582), SEMG2(354-403) fragment, SEMG2(442-453) fragment, SEMG2(497-509) fragment and SEMG2(563-574) fragment were immobilized on the ELISA plate, and the same concentration of antibodies (MM02, MM05, MM07, MM08, MM13, MM14, HPA042767 and HPA042835) were added. Anti-mouse or anti-rabbit secondary antibodies were then used to detect the corresponding bound antibodies. MM02, MM05, MM07, MM08, MM13, and MM14 all bound to SEMG2(497509) epitope, HPA042767 bound to SEMG2 (354-403) epitope, and HPA042835 bound to […], while none of the antibodies bound to SEMG2 (442-453) control fragment.
Specifically, the preparation of polypeptide antigens and the screening of human natural antibody library were firstly performed. The SEMG2(497-509) polypeptide was synthesized and coupled to BSA and KLH, respectively, and screened in a fully human phage display antibody library. ELISA was used to select clones that bind to antigenic epitopes for preliminary screening. Different unique sequences were obtained after sequencing single colonies, sorted according to affinity sorting, and full-length antibodies were constructed from antigen-binding fragments (Fab) with relatively high affinity. The binding ability and blocking function tests were performed after purification, that is, the effect of the antibody on binding between SEMG2 and CD27 was determined by the ELISA experiment.

Assay [1] deals with A375 human melanoma cells. Nature of the assay: Tumor cell killing by activated PBMC, caspase-3/7 apoptosis. Format: cell-based. Particulars: A375, SEMG2-positive, co-culture with activated PBMC 10:1. As to the method: (§1) To test the above hypothesis, the effects of different epitope-specific antibodies on tumor cell killing by activated PBMC were compared. Specifically, A375 human melanoma and LOVO human colorectal cancer cells highly expressing SEMG2 were seeded in 96-well plate. Human peripheral blood mononuclear cells (PBMC; #70025, Stem Cell) were activated with 100 ng/mL of CD3 antibody, 100 ng/mL, of CD28 antibody, and 1.0 ng/mL of IL2 (#317303; #302913; #589102, BioLegend), respectively, and co-cultured with the above tumor cells at a ratio of 10:1 in presence of fluorescent caspase-3/7 substrate (#4440, Essen Bioscience). After 1.0 hours, cells were observed under fluorescence microscope.
(§2) To verify the above hypothesis, tumor cells with high SEMG2 expression (A375, LOVO) and SEMG2-negative tumor cells (DLD1, NCM460 and NCI-H1975) were selected. Different antibodies (irrelevant mouse IgG antibodies, MM02 or MM05 antibodies) were added during the PBMC killing experiments for the tumor cells.
(§3) To verify the effect of the human antibodies on the function of activated PBMC on tumor cell killing, A375 and LOVO cells were co-cultured with activated PBMC, and H88-93, H88-96, or H88-67 antibody was added at the same time, and the apoptosis ratio of tumor cells were detected.

Assay [2] concerns LOVO human colorectal cancer cells. Described as above. Particulars: SEMG2-positive, co-culture with activated PBMC 10:1. It is filed as cell-based. As to the method:
as §1, §2, §3

In another assay the test system is DLD1 cells. Nature of the assay: Tumor cell killing by activated PBMC. Format: cell-based, human. Particulars: DLD1, SEMG2-negative. How it is done:
as §1, §2

In the next assay the test system is NCI-H1975 cells. Briefly: Tumor cell killing by activated PBMC. Particulars: NCI-H1975, SEMG2-negative. Format: cell-based, human. How it is done:
as §1, §2

For a further assay, the system named is NCM460 cells. Nature of the assay: Tumor cell killing by activated PBMC. It is filed as cell-based, human. The settings on record: NCM460, SEMG2-negative. How it is done:
as §1, §2

B1: MM05: mouse monoclonal antibody against SEMG2(497-509), mIgG1 kappa, VH SEQ ID NO:36, VL SEQ ID NO:43 (antibody, V domains shown)
VH: QVQLQQPGAELVRPGASVKLSCEASGYTFTSYWMNWVKQRPGQGLEWIGMIDPSDSETHYNQMFKDKATLTVDKSSSTAYMQLSSLTSEDSAVYYCARYLGGKEGSFDYWGQGTTLTVSS
VL: DIVMSQSPSSLAVSAGEKVTMSCKSSQSLLNSRTRKNYLAWYQQKPGQSPKLLIYWASTRESGVPDRFTGSGSGTDFTLTISSVQAEDLAVYYCKQSYSLPWTFGGGTKLEIKRA
modifications: UNSURE (1)..(120) VH; UNSURE (1)..(115) VL
On to B1, for which the “binding to SEMG2(497-509) epitope” value with SEMG2(497-509) fragment was “able to hind to SEMG2(497-509); also recorded: bound”. Also, the “apoptosis tumor cell ratio / killing by activated PBMC” value in assay [1] and in assay [2] was “significantly increased the killing” throughout. Also, the “killing by activated PBMC” value in the assay on DLD1 cells, in the assay on NCI-H1975 cells and in the assay on NCM460 cells was “no obvious impact” each time.

B2: MM02: mouse monoclonal antibody against SEMG2(497-509), mIgG2b kappa, VH SEQ ID NO:35, VL SEQ ID NO:42 (antibody, V domains shown)
VH: QIQLVQSGPEVKKPGETVRISCKASGYTLTTAGIQWVQKMPGKGLKWIGWINTHSGVPEYAEDFKGRFAFFLETSASTAYLQISNLKNEDTATYFCARLGLLGYWGQGTTLTVSS
VL: DILLTQSPAILSVSPGERVSFSCRASQSIGTTIHWYQQRTNGSPRLLIKYASESISGIPSRFSGSGSGTDFTLSINSVESEDIADYYCQQSNSWPWTFGGGTKLEIKRA
modifications: UNSURE (1)..(115) VH; UNSURE (1)..(109) VL
In the case of B2, the “binding to SEMG2(497-509) epitope” value with SEMG2(497-509) fragment is “able to hind to SEMG2(497-509); also recorded: bound”. For the same molecule, the “apoptosis tumor cell ratio / killing by activated PBMC” value in assay [1] and in assay [2] was “significantly increased the killing” throughout. For the same molecule, the “killing by activated PBMC” value with DLD1 cells, in the assay with NCI-H1975 cells and in the assay on NCM460 cells was “no obvious impact” each time.
